Measured values published in article PMC13104032, “Prion Protein-Derived Cell-Penetrating Peptide Inhibits Type II Diabetes-Associated Islet Amyloid Polypeptide Aggregation and Cytotoxicity” (Biochemistry, 2026).
No end group written: not given here.

Target: T1, human islet amyloid polypeptide (IAPP), C-terminally amidated (human, C-terminal amide)
T1 construct: islet amyloid polypeptide (amylin), human, the 37-residue peptide hormone, residues 1-37; numbers count on: the mature protein; also called amylin
T1 chain: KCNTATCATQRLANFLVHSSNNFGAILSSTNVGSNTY
Assay: native MS
Conditions: both partners purified

Binder: MLRTKDLIWTLFFLGTAVSKKRPKP-NH2 (also called NPr; CPP) [NCAM1-PrP (NCAM1(1-19)-PrP(23-28)) cell-penetrating peptide construct]
- stoichiometry N: 1
